One substance from US20260242417A1 can be followed below.

This test addresses Patched.

The substance “Recombinant mouse Sonic HedgeHog (mShh) (from UniProt Q62226) (ligand)” gave a Mean luminescence intensity (Gli-luciferase reporter, NIH3T3 cells) (luminescence intensity) of 6460.
